Measured values taken from patent US12723279B2, “Long stokes shift chromenoquinoline dyes and uses in sequencing applications” (priority 2020, dated 2026).

Legend:
Assay type in all cases: physicochemical
[1] = UV-Vis absorption of chromenoquinoline dye labeled ffA nucleotides
Description: (§1) The chromenoquinoline dye of Formula (I) (0.020 mmol) was coevaporated with 2×2 mL of anhydrous N,N′-dimethylformamide (DMF), then dissolved in 2 mL of anhydrous N,N′-dimethylacetamide (DMA). N,N-diisopropylethylamine (28.4 μL, 0.163 mmol) was added, followed by N,N,N′,N′-tetramethyl-O—(N-succinimidyl)uronium tetrafluoroborate as 0.1 M solution in anhydrous DMA (TSTU, 232 μL, 0.023 mmol). The reaction was stirred under nitrogen at RT for 30 minutes. In the meantime, an aqueous solution of the 2′-deoxyadenosine triphosphates-linker (0.01 mmol) was evaporated to dryness under reduced pressure and resuspended in 200 μL, of 0.1 M triethylammonium bicarbonate (TEAB) solution in water. The activated chromenoquinoline dye solution was added to the triphosphate and the reaction was stirred at RT for 18 hours. The crude product was purified firstly by ion-exchange chromatography on DEAE-Sephadex A25 (25 g). The fractions containing the triphosphate were pooled and the solvent was evaporated to dryness under reduced pressure. The crude material was further purified by preparative scale RP-HPLC using a YMC-Pack-Pro C18 column. The final compound was characterized by LC-MS, analytical RP-HPLC and UV-Vis spectroscopy.
(§2) In this example, the spectral properties of several fully functionalized A nucleotides (ffAs) conjugated with the chromenoquinoline dyes described herein were characterized. FIG. 1 illustrates the […] of ffA nucleotides conjugated with chromenoquinoline dyes I-1 through I-6 and I-8 as a 2 μM solution in Universal Scan Mix (USM, 1 M Tris pH 7.5, 0.05% TWEEN, 20 mM sodium ascorbate, 10 mM ethyl gallate). FIGS. 2A-2D show the fluorescence emission spectra of ffA nucleotide conjugated with chromenoquinoline dyes I-1 through I-6 and I-8 acquired using either 450 nm or 520 nm as excitation wavelengths in USM. The spectra were acquired on an Agilent Cary 100 UV-Vis Spectrophotometer and on a Cary Eclipse Fluorescence Spectrophotometer, using quartz or plastic cuvettes. It was observed that the chromenoquinoline dyes described herein can be excited under both blue and green light sources and also have strong fluorescent emission.

[2] = Fluorescence emission of chromenoquinoline dye labeled ffA nucleotides
Description: as §1, §2

[3] = Stability of dye labeled ffAs in aqueous solution at high pH (ethanolamine and glycine buffers, 45° C.); settings: 10 μM, dark, vs ffC labeled with coumarin reference dye A
Description: The stability of the compounds ffA-sPA-I-3 and ffA-sPA-I-4 in an aqueous solution at high pH was assessed by incubating a 10 μM solution of the given compound in two buffers: 1) 50 mM ethanolamine buffer, pH 9.6, 50 mM NaCl, 1 mM EDTA, 0.02% CHAPS, 4 mM MgSO4; 2) 50 mM glycine buffer, pH 9.8, 50 mM NaCl, 1 mM EDTA, 0.2% CHAPS, 4 mM MgSO4 at 45° C. in the dark for 6 days. At set time points, the UV-VIS absorption and fluorescence emission of the solutions were measured on an Agilent Cary 100 UV-Vis Spectrophotometer and on a Cary Eclipse Fluorescence Spectrophotometer, using quartz cuvettes. In addition, aliquots of the solutions were taken and analyzed by analytical HPLC. […] The coumarin reference dye A is disclosed in U.S. Publication No. 2018/0094140, having the structure moiety

[4] = 50 mM ethanolamine buffer pH 9.6, 45° C., 6 days (FIG. 3A)
[5] = 50 mM glycine buffer pH 9.8, 45° C., 6 days (FIG. 3B)

Row | Compound | UV-VIS λmax [1] | Fluorescence em. λmax [2] | fluorescence emission over time [3, 4] | fluorescence emission over time [3, 5]
1 | COc1cc2cc3c([n+](C)c2cc1OC)-c1cc2c(cc1OC3)N(CCCC(=O)NCCCCCNC(=O)c1cccc(OCC(N=[N+]=[N-])OCC(=O)NCC#Cc3cn([C@H]4CC(OCN=[N+]=[N-])[C@@H](COP(=O)(O)OP(=O)(O)OP(=O)(O)O)O4)c4ncnc(N)c34)c1)CCC2 (stereo partly shown) [ffA-sPA-LN3-I-4] | 500 nm | 578 nm | decreased very slowly over time | decreased very slowly over time
2 | C=CCOCOC1C[C@H](n2cc(/C=C/CNC(=O)COC(COc3cccc(C(=O)NCCCCCNC(=O)CCCN4CCCc5cc6c(cc54)OCc4cc5cc(OC)c(OC)cc5[n+](C)c4-6)c3)OCC=C)c3c(N)ncnc32)O[C@@H]1COP(=O)(O)OP(=O)(O)OP(=O)(O)O (stereo partly shown) [ffA-(DB)-AOM-AOL-I-4] | 500 nm | 578 nm |  | 
3 | COc1ccc2c(c1)cc1c([n+]2C)-c2cc3c(cc2OC1)N(CCCC(=O)NCCNC(=O)c1cccc(OCC(N=[N+]=[N-])OCCOCC(=O)NCC#Cc2cn([C@H]4CC(OCN=[N+]=[N-])[C@@H](COP(=O)(O)OP(=O)(O)OP(=O)(O)O)O4)c4ncnc(N)c24)c1)CCC3 (stereo partly shown) [ffA-LN3-I-1] | 503 nm | 590 nm |  | 
4 | Cc1ccc2c(c1)cc1c([n+]2C)-c2cc3c(cc2OC1)N(CCCC(=O)NCCNC(=O)c1cccc(OCC(N=[N+]=[N-])OCCOCC(=O)NCC#Cc2cn([C@H]4CC(OCN=[N+]=[N-])[C@@H](COP(=O)(O)OP(=O)(O)OP(=O)(O)O)O4)c4ncnc(N)c24)c1)CCC3 (stereo partly shown) [ffA-LN3-I-2] | 500 nm | 582 nm |  | 
5 | CCN(CC)c1ccc2c(c1)OCc1cc3cc(CC(=O)NCCNC(=O)c4cccc(OCC(N=[N+]=[N-])OCCOCC(=O)NCC#Cc5cn([C@H]6CC(OCN=[N+]=[N-])[C@@H](COP(=O)(O)OP(=O)(O)OP(=O)(O)O)O6)c6ncnc(N)c56)c4)ccc3[n+](C)c1-2 (stereo partly shown) [ffA-LN3-I-6] | 495 nm | 574 nm |  | 
6 | COc1cc2c(cc3c([n+]2C)-c2cc4c(cc2OC3)N(CCCC(=O)NCCCCCNC(=O)c2cccc(OCC(N=[N+]=[N-])OCC(=O)NCC#Cc3cn([C@H]5CC(OCN=[N+]=[N-])[C@@H](COP(=O)(O)OP(=O)(O)OP(=O)(O)O)O5)c5ncnc(N)c35)c2)CCC4)c(OC)c1OC (stereo partly shown) [ffA-sPA-LN3-I-8] | 500 nm | 583 nm |  | 
7 | C=CCOCOC1C[C@H](n2cc(C#CCNC(=O)COC(COc3cccc(C(=O)NCCCCCNC(=O)CCCN4CCCc5cc6c(cc54)OCc4cc5cc(OC)c(OC)cc5[n+](C)c4-6)c3)OCC=C)c3c(N)ncnc32)O[C@@H]1COP(=O)(O)OP(=O)(O)OP(=O)(O)O (stereo partly shown) [ffA-AOM-AOL-I-4] | 500 nm | 578 nm |  | 
8 | COc1ccc2c(c1)cc1c([n+]2C)-c2cc3c(cc2OC1)N(CCCC(=O)NCCNC(=O)c1cccc(OCC(N=[N+]=[N-])OCCOCC(=O)NCC#Cc2cn([C@H]4CC(OCN=[N+]=[N-])[C@@H](COP(=O)(O)OP(=O)(O)OP(=O)(O)O)O4)c4ncnc(N)c24)c1)C(C)(C)CC3C (stereo partly shown) [ffA-LN3-I-5] | 501 nm | 585 nm |  | 
9 | Cc1cc2cc3c([n+](C)c2cc1C)-c1cc2c(cc1OC3)N(CCCC(=O)NCCCCCNC(=O)c1cccc(OCC(N=[N+]=[N-])OCC(=O)NCC#Cc3cn([C@H]4CC(OCN=[N+]=[N-])[C@@H](COP(=O)(O)OP(=O)(O)OP(=O)(O)O)O4)c4ncnc(N)c34)c1)CCC2 (stereo partly shown) [ffA-sPA-LN3-I-3] | 500 nm | 578 nm | decreased very slowly over time | decreased very slowly over time
